The text below walks through data of the supplement of paper PMC10126150.

± gives the standard deviation of the averaged measurements.

The subject of this data set is ATP. As to the kind of experiment: switch fluorescence ratio, 500 uM ATP over buffer (Cy3 cluster intensity, sum of 5 cycles each) (fold (ratio)); higher = stronger signal-on switching upon ATP binding; sequences stand for … in TCGTCGGCAGCGTCAGATGTGTATAAGAGACAGTTTTTTTTTTTTTTTTTTTTTTTTT…TC. The note with it: aptamer strand: ATP DNA aptamer (quencher-CACCTGGGGGAGTATTGCGGAGGAAGG + anchor), 100 nM annealed; ATP concentration: 500 uM. The method, boiled down: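 Values give the fluorescence ratio for each switch-domain sequence, averaged from per-cluster ratios of summed target-cycle to summed buffer-cycle Cy3 intensity. The Cy3-labelled switching-strand clusters sat on a modified Illumina MiSeq flow-cell, were annealed to 100 nM quencher-labelled ATP aptamer, and were imaged in selection buffer, then after 15 min with 500 uM ATP at 22 °C. Five cycles ran with NaOH stripping and re-annealing between them, and clusters outside 100-1000 RFU were excluded.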
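Note: ATP exposure 15 min at 22 °C before imaging.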

With TAAAGTTATT, the switch fluorescence ratio was 1.0106 ± 0.00041.
Consider GGGGTTGAAA, for which the switch fluorescence ratio stood at 0.973 ± 0.083.
Consider AATCAGTGGA, for which the switch fluorescence ratio is 0.974 ± 0.038.
The result for TTTGGTTGT reads 0.972 ± 0.013; that for TAATGGTCGT, 0.989 ± 0.029.
Take CCGGGGTAGA: the switch fluorescence ratio is 1.02 ± 0.023.
Then AATAATGTTC, with 0.9805 ± 0.0071; and GGGAAATGGG, with 0.9747 ± 0.0087.
The result for TGGTGATGGG reads 0.9922 ± 0.0093; that for GTTAGGGTAG, 0.992 ± 0.025; that for AAAGAACGCT, 1.04 ± 0.015.
AGAGAATGGT: the switch fluorescence ratio was 0.999 ± 0.027.
The result for TTGATTCAAT reads 1.17 ± 0.33; that for AATGAGGGTC, 0.989 ± 0.11; that for GCGGGCCCTT, 1.01 ± 0.012.
For the sequence TTGGCGAGGG, the switch fluorescence ratio was determined as 1.008 ± 0.0081.
As to GTCGGGGCTG, the switch fluorescence ratio came out at 0.972 ± 0.049.
Then TCGTAGTGGG, with 1.01 ± 0.054; and CGGTCGTTGT, with 1.02 ± 0.03; and GGGATAGATC, with 1.05 ± 0.016.
Then GGGGCCGTTT, with 0.973 ± 0.03; and GAAGTAGTCG, with 1.06 ± 0.017.
Then ATTTTTTGGT, with 0.9981 ± 0.006.
Turning to TCACGGGCAG, the switch fluorescence ratio worked out at 0.978 ± 0.012.
The result for GATGATGTTT reads 0.973 ± 0.039; that for GGATCGAGAC, 0.9755 ± 0.0034.
On to GGGAAGTCTG, for which the switch fluorescence ratio worked out at 0.955 ± 0.024.
Regarding AGTGACGGTT, the switch fluorescence ratio turned out to be 0.977 ± 0.021.
The result for TGGGGAAGGG reads 0.989 ± 0.039.
Then TTAGAAGGGA, with 1.01 ± 0.056.
Then TTTTGAGGGG, with 1.01 ± 0.042.
Regarding TTAAAGTGAA, the switch fluorescence ratio came out at 0.988 ± 0.024.
The result for ATACGGCCCC reads 1.2 ± 0.1; that for TCAGGGGTTT, 1.3 ± 0.53; that for TCAAGCCGAG, 1.08 ± 0.062.
The result for CCCATTATGC reads 1.13 ± 0.057.
Then CACATGTAGC, with 1.02 ± 0.041; and TTTTCACCGT, with 1.06 ± 0.027.
On to ATGTCCCGGT, for which the switch fluorescence ratio came to 0.974 ± 0.025.
Consider CAGCGTATCA, for which the switch fluorescence ratio was determined as 1.01 ± 0.0018.
Then TTTGGGTATC, with 0.982 ± 0.041; and CCGGCGGGGC, with 1 ± 0.013; and ACAAAAGACT, with 1.19 ± 0.25.
Take TTGATGAAAA: the switch fluorescence ratio is 1 ± 0.038.
Then GAGTTGGTAG, with 0.969 ± 0.021; and TGGCGGGGAC, with 1.1 ± 0.17.
Regarding AAATTGGCAT, the switch fluorescence ratio is 0.993 ± 0.028.
In the case of GTCGGGAAGT, the switch fluorescence ratio amounted to 0.958 ± 0.024.
AACCTGTAGG: the switch fluorescence ratio came out at 0.987 ± 0.021.
For the sequence GCACGGGGGG, the switch fluorescence ratio amounted to 1.03 ± 0.0077.
For CAAATATACG, the switch fluorescence ratio was 1.23 ± 0.23.
Take CTGGAAATTT: the switch fluorescence ratio turned out to be 1 ± 0.027.
The result for CATGGTTTTC reads 0.962 ± 0.04; that for TTTTGCAGCC, 0.976 ± 0.02.
The result for GTGTGTCTGT reads 0.991 ± 0.021; that for AGGATTAGGG, 1 ± 0.033.
As to GTGGAAGTCC, the switch fluorescence ratio worked out at 1 ± 0.022.
Then TTTTAGGGGC, with 1.13 ± 0.23.
Then ATTCGGGACC, with 0.973 ± 0.019.
Regarding TTAAAACTCA, the switch fluorescence ratio stood at 1.04 ± 0.018.
Then CACGCGAGGA, with 1.12 ± 0.12; and TTTGATGGTG, with 1.04 ± 0.012.
Take ATCTTGTGGG: the switch fluorescence ratio was 0.9678 ± 0.0064.
Then TTAGGGGACG, with 0.981 ± 0.04.
For the sequence ATTTGTATTT, the switch fluorescence ratio is 0.992 ± 0.026.
Then ATAAAGTGGA, with 0.984 ± 0.044; and ACGATCGAAA, with 1.24 ± 0.019.
Then TTCGGATATA, with 0.9915 ± 0.0063.
For GCGGGGATTT, the switch fluorescence ratio came out at 0.996 ± 0.023.
The result for TGGGCGGTGC reads 1.93 ± 1.2; that for GGGTGGTAGG, 1 ± 0.028; that for AAATGTTCTT, 0.986 ± 0.031.
For AGGGGCAGTT, the switch fluorescence ratio came out at 0.985 ± 0.02.
The result for TCAATCAGGT reads 1.032 ± 0.0019; that for TTGTTGTTTT, 0.995 ± 0.035; that for AGCTGACCGA, 1.083 ± 0.0037.
The result for TAGGAGGTTT reads 1.067 ± 0.0013; that for GGTTGTGGTT, 0.998 ± 0.031; that for GCTGGGTATT, 0.9435 ± 0.0054.
The result for TAGGGAGGGA reads 0.9801 ± 0.0069; that for CCATGTGAAG, 0.992 ± 0.027.
For the sequence GGGGGTAGCT, the switch fluorescence ratio was 1 ± 0.017.
Then ACCCGGGCAG, with 1.049 ± 0.0047; and TGGAACTTAT, with 0.997 ± 0.056.
For GGGGGCCGGC, the switch fluorescence ratio was 1.028 ± 0.0031.
As to CTCCTGGACT, the switch fluorescence ratio was determined as 1.069 ± 0.0061.
Then TTATAGACAG, with 0.997 ± 0.034.
Then GGGAAGGGGT, with 1.01 ± 0.055; and TTACCATTAG, with 0.965 ± 0.011; and GCCGTCGGCA, with 1 ± 0.017.
The result for ACATCAGAAG reads 1.02 ± 0.039; that for GCTAGCGTGG, 1.02 ± 0.091.
As to TTATTAATCT, the switch fluorescence ratio stood at 0.9974 ± 0.0049.
Then GGGAAAAATT, with 1.013 ± 0.006; and GACCATTGGA, with 1.006 ± 0.0011; and GGGGAGGGGG, with 0.999 ± 0.044.
Then TGTTCTCGGA, with 1.006 ± 0.0097.
The result for AGGCGTTCTG reads 0.991 ± 0.051; that for TTATTAGTTA, 0.988 ± 0.011; that for ACTTAGGCG, 1.05 ± 0.086.
With GTTGTTGGTG, the switch fluorescence ratio was determined as 1.01 ± 0.015.
The result for AAGTGTATCA reads 0.983 ± 0.02; that for TATTGGGGAG, 1.13 ± 0.29; that for TGTAGAGGGT, 0.976 ± 0.029.
The result for CACGTACTCC reads 1.5 ± 0.097; that for TTTGCAGCGG, 1.02 ± 0.012; that for AGTATCGTGC, 0.9968 ± 0.0098.
Turning to TAATTTTTTG, the switch fluorescence ratio came to 0.997 ± 0.021.
Then CTGTCGGGGT, with 0.982 ± 0.037.
Turning to CTTACAGTTT, the switch fluorescence ratio was determined as 1 ± 0.011.
With ATGGTGCGGT, the switch fluorescence ratio is 0.987 ± 0.02.
The result for AGGTAGTTTG reads 0.9979 ± 0.0018; that for CGTGTACCGG, 1.01 ± 0.0092; that for AGTTATCGAC, 1.01 ± 0.021.
The result for CTCTGAGGGC reads 1.07 ± 0.057.
As to GATGTTTGTG, the switch fluorescence ratio stood at 0.992 ± 0.045.
The result for GGCGGGACGG reads 1.01 ± 0.033; that for CTTGTATAGT, 0.9947 ± 0.0062.
As to ATTCTTTACA, the switch fluorescence ratio was found to be 1.06 ± 0.014.
Then GAAAAATTAA, with 0.993 ± 0.026.
